The values below come from IntAct's records for PubMed 24525235.

Sequences and labels used below:
B1: Twist-related protein 1 (Homo sapiens), Q15672 (parent)
chain: MMQDVSSSPVSPADDSLSNSEEEPDRQQPPSGKRGGRKRRSSRRSAGGGAGPGGAAGGGVGGGDEPGSPAQGKRGKKSAGCGGGGGAGGGGGSSSGGGSPQSYEELQTQRVMANVRERQRTQSLNEAFAALRKIIPTLPSDKLSKIQTLKLAARYIDFLYQVLQSDELDSKMASCSYVAHERLSYAFSVWRMEGAWSMSASH

The variants in the experiment derive from B1. The note with it: with BRD4, O60885-1.
Turning to MMQDVSSSPVSPADDSLSNSEEEPDRQQPPSGKRGGRKRRSSRRSAGGGAGPGGAAGGGVGGGDEPGSPAQGKRGRKSAGCGGGGGAGGGGGSSSGGGSPQSYEELQTQRVMANVRERQRTQSLNEAFAALRKIIPTLPSDKLSKIQTLKLAARYIDFLYQVLQSDELDSKMASCSYVAHERLSYAFSVWRMEGAWSMSASH [K76R], the “effect of a mutation on the interaction” value is listed as “decreasing interaction strength”.
Take MMQDVSSSPVSPADDSLSNSEEEPDRQQPPSGKRGGRKRRSSRRSAGGGAGPGGAAGGGVGGGDEPGSPAQGRRGKKSAGCGGGGGAGGGGGSSSGGGSPQSYEELQTQRVMANVRERQRTQSLNEAFAALRKIIPTLPSDKLSKIQTLKLAARYIDFLYQVLQSDELDSKMASCSYVAHERLSYAFSVWRMEGAWSMSASH [K73R]: the “effect of a mutation on the interaction” value is “decreasing interaction strength”.
MMQDVSSSPVSPADDSLSNSEEEPDRQQPPSGKRGGRKRRSSRRSAGGGAGPGGAAGGGVGGGDEPGSPAQGRRGRKSAGCGGGGGAGGGGGSSSGGGSPQSYEELQTQRVMANVRERQRTQSLNEAFAALRKIIPTLPSDKLSKIQTLKLAARYIDFLYQVLQSDELDSKMASCSYVAHERLSYAFSVWRMEGAWSMSASH [K73R;K76R]: the “effect of a mutation on the interaction” value is recorded as “disrupting interaction strength”.
